Assay results from paper PMC8870054.

Biological target: CLOBY biosensor (His6-mClover3-spacer with TEV site-Src SH4, unique and SH3 domains-spacer-mRuby3)
Experiment: dynamic light scattering; hydrodynamic radius at variable concentrations up to 275 uM, 25 °C; apparent; dimer to monomers

Kd: 700 µM
Substance: CLOBY biosensor (His6-mClover3-spacer with TEV site-Src SH4, unique and SH3 domains-spacer-mRuby3)
